Results taken from patent US20130323786A1.
Where a chain is given by its changes, count along the chain named. Each block holds one binder with its values, some of them ahead of it.

How the values were obtained:
LINGO-1 (human) [1] = target: LINGO-1 (human) (UniProt Q96FE5); experiment: FACS binding to LINGO-1; the value is listed under the plot without a name and agrees with the half-maximal point of the curve (x axis: Ab (ng/ml) log)
LINGO-1 (human) [2] = target: LINGO-1 (human) (UniProt Q96FE5); experiment: ELISA
LINGO-1 (human) [3] = target: LINGO-1 (human) (UniProt Q96FE5); experiment: affinity vs parent Li62 Fab; method not stated
LINGO-1 (human) [4] = target: LINGO-1 (human) (UniProt Q96FE5); experiment: LINGO-1 ELISA

- EC50 (LINGO-1 (human) [1]): 0.182 µg/mL
B1: N-terminally PEGylated Li113 (Fab, V domains shown)
VH: EVQLLESGGGLVQPGGSLRLSCAASGFTFSIYPMFWVRQAPGKGLEWVSWIGPSGGITKYADSVKGRFTISRDNSKNTLYLQMNSLRAEDTATYYCAREGTYDWYLDLWGRGTLVTVSS
VL: DIQMTQSPSFLSASVGDSVAITCRASQDISRYLAWYQQRPGKAPKLLIYDASNLQTGVPSRFSGSGSGTDFTFTITSLQPEDFGTYYCQQYDTLHPSFGPGTTVDIK
modifications: N-terminal 20 kDa methoxy-polyethyleneglycol propionaldehyde; chain carrying it not stated

- ELISA Signal (LINGO-1 (human) [2]): 3
- Fold-Improvement (LINGO-1 (human) [3]): 9 fold
B2: Li62 variant F01 Fab (VH CDR3 SEQ ID NO:23) (Fab, V domains shown)
VH: B1 VH with T101R, L106F, L108P
VL: B1 VL

- ELISA Signal (LINGO-1 (human) [2]): 3
- Fold-Improvement (LINGO-1 (human) [3]): 9 fold
B3: Li62 variant H08 Fab (VH CDR3 SEQ ID NO:34) (Fab, V domains shown)
VH: B1 VH with L106F
VL: B1 VL

- ELISA Signal (LINGO-1 (human) [2]): 3
- Fold-Improvement (LINGO-1 (human) [3]): 11 fold
B4: Li62 variant C10 Fab (VH CDR3 SEQ ID NO:29) (Fab, V domains shown)
VH: B1 VH with T101Y, L106F
VL: B1 VL

- ELISA Signal (LINGO-1 (human) [2]): 3
- Fold-Improvement (LINGO-1 (human) [3]): 8 fold
B5: Li62 variant F02 Fab (VH CDR3 SEQ ID NO:24) (Fab, V domains shown)
VH: B1 VH with T101D, L106F, D107G
VL: B1 VL

- ELISA Signal (LINGO-1 (human) [2]): 3
- Fold-Improvement (LINGO-1 (human) [3]): 8 fold
B6: Li62 variant B12 Fab (VH CDR3 SEQ ID NO:18) (Fab, V domains shown)
VH: B1 VH with T101Q, L106F, L108V
VL: B1 VL

- ELISA Signal (LINGO-1 (human) [2]): 0.5
- Fold-Improvement (LINGO-1 (human) [3]): 6 fold
B7: Li62 variant H08 Fab (VH CDR3 SEQ ID NO:28) (Fab, V domains shown)
VH: B1 VH with T101H, D103N, W104G, L106F
VL: B1 VL

- ELISA Signal (LINGO-1 (human) [2]): 3
- Fold-Improvement (LINGO-1 (human) [3]): 8 fold
B8: Li62 variant B01 Fab (VH CDR3 SEQ ID NO:20) (Fab, V domains shown)
VH: B1 VH with T101Q, L106F, D107E
VL: B1 VL

- EC50 (LINGO-1 (human) [4]): 0.26 nM
B9: Li62 Fab (Fab, V domains shown)
VH: B1 VH with T101H, Y102N, L106F
VL: B1 VL

- EC50 (LINGO-1 (human) [4]): 0.09 nM
- ELISA Signal (LINGO-1 (human) [2]): 3
- Fold-Improvement (LINGO-1 (human) [3]): 8 fold
B10: Li113 Fab (Li62 variant C02, VH CDR3 SEQ ID NO:30) (Fab, V domains shown)
VH: B1 VH
VL: B1 VL

- ELISA Signal (LINGO-1 (human) [2]): 3
- Fold-Improvement (LINGO-1 (human) [3]): 8 fold
B11: Li62 variant D12 Fab (VH CDR3 SEQ ID NO:22) (Fab, V domains shown)
VH: B1 VH with T101H, L106F
VL: B1 VL

- ELISA Signal (LINGO-1 (human) [2]): 3
- Fold-Improvement (LINGO-1 (human) [3]): 15 fold
B12: Li62 variant D09 Fab (VH CDR3 SEQ ID NO:21) (Fab, V domains shown)
VH: B1 VH with G100A, T101D, Y102I, Y105F, L106F
VL: B1 VL

- ELISA Signal (LINGO-1 (human) [2]): 3
- Fold-Improvement (LINGO-1 (human) [3]): 12 fold
B13: Li62 variant F06 Fab (VH CDR3 SEQ ID NO:19) (Fab, V domains shown)
VH: B1 VH with T101D, L106F
VL: B1 VL

- ELISA Signal (LINGO-1 (human) [2]): 3
- Fold-Improvement (LINGO-1 (human) [3]): 8 fold
B14: Li62 variant B06 Fab (VH CDR3 SEQ ID NO:17) (Fab, V domains shown)
VH: B1 VH with T101Y, L106F, L108Q
VL: B1 VL

- ELISA Signal (LINGO-1 (human) [2]): 3
- Fold-Improvement (LINGO-1 (human) [3]): 9 fold
B15: Li62 variant C10 Fab (VH CDR3 SEQ ID NO:33) (Fab, V domains shown)
VH: B1 VH with T101Q, Y102F, L106F
VL: B1 VL

- ELISA Signal (LINGO-1 (human) [2]): 3
- Fold-Improvement (LINGO-1 (human) [3]): 5 fold
B16: Li62 variant F10 Fab (VH CDR3 SEQ ID NO:26) (Fab, V domains shown)
VH: B1 VH with G100S, T101H, Y102I, W104R, L106F
VL: B1 VL

- ELISA Signal (LINGO-1 (human) [2]): 3
- Fold-Improvement (LINGO-1 (human) [3]): 10 fold
B17: Li62 variant G08 Fab (VH CDR3 SEQ ID NO:27) (Fab, V domains shown)
VH: B1 VH with T101Q, L106F, L108V
VL: B1 VL

- ELISA Signal (LINGO-1 (human) [2]): 3
- Fold-Improvement (LINGO-1 (human) [3]): 10 fold
B18: Li62 variant D05 Fab (VH CDR3 SEQ ID NO:31) (Fab, V domains shown)
VH: B1 VH with T101Y, L106F, D107E
VL: B1 VL

- ELISA Signal (LINGO-1 (human) [2]): 3
- Fold-Improvement (LINGO-1 (human) [3]): 16 fold
B19: Li62 variant F02 Fab (VH CDR3 SEQ ID NO:32) (Fab, V domains shown)
VH: B1 VH with T101L, Y102I, Y105F, L106F, L108Q
VL: B1 VL

- ELISA Signal (LINGO-1 (human) [2]): 3
- Fold-Improvement (LINGO-1 (human) [3]): 8 fold
B20: Li62 variant F06 Fab (VH CDR3 SEQ ID NO:25) (Fab, V domains shown)
VH: B1 VH with T101R, L106F
VL: B1 VL
